US20090208500A1 (Genentech, published 2009)

How the values were obtained:
[1] = biological target: T1, human FcγRIII (F158), low affinity isotype (human, UniProt P08637 17-208); assay: FcγR binding ELISA; relative to 2H7 control cell line antibody (2 to 4% nonfucosylated)
T1 construct: Receptor captured on plates by anti-GST (clone 8E2.1.1); also called FcγRIII (F158 allele); FcγRIIIA (F158); not shown: GST tag implied by capture on anti-GST coated plates

[2] = biological target: T2, human FcγRIII (V158), high affinity isotype (human, UniProt P08637 17-208); assay: as above
T2 construct: Receptor captured by anti-GST; construct not described; also called FcγRIII (V158 allele); FcγRIIIA (V158); not shown: GST tag implied by capture on anti-GST coated plates
T2 sequence (P08637 17-208 F176V): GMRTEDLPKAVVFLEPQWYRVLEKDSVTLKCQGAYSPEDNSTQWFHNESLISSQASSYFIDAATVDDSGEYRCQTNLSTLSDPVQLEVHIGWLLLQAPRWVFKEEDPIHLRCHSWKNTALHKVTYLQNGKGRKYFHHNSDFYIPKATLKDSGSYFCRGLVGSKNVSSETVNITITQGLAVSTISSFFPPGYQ

[3] = biological target: T1, human FcγRIII (F158), low affinity …; assay: FcγRIII binding ELISA; anti-GST captured receptor, IgG complexed with anti-kappa F(ab')2; relative activity
Protocol: (§1) MaxiSorp 96-well microwell plates (Nunc, Roskilde, Denmark) were coated with 2 μg/ml anti-GST (clone 8E2.1.1, Genentech), at 100 μl/well in 50 mM carbonate buffer, pH 9.6, at 4° C. overnight. Plates were washed with PBS containing 0.05% polysorbate, pH 7.4 (wash buffer) and blocked with PBS containing 0.5% BSA, pH 7.4, at 150 μl/well. After a one-hour incubation at room temperature, plates were washed with wash buffer. Human FcγRIII was added to the plates at 0.25 μg/ml, 100 μl/well, in PBS containing 0.5% BSA, 0.05% polysorbate 20, pH 7.4. (assay buffer). The plates were incubated for one hour and washed with wash buffer. Antibodies were incubated with goat F(ab′)₂ anti-K (Cappel, ICN Pharmaceuticals, Inc., Aurora, Ohio) at a 1:2 (w/w) ratio for 1 hour to form antibody complexes. Eleven […] serial dilutions of complexed IgG antibodies (0.85-50000 ng/ml in threefold serial dilution) in assay buffer were added to the plates. After a two-hour incubation, plates were washed with wash buffer. Bound IgG was detected by adding peroxidase labeled goat F(ab′)₂ anti-human IgG F(ab′)₂ (Jackson ImmunoResearch, West Grove, Pa.) at 100 μl/well in assay buffer. After a one-hour incubation, plates were washed with wash buffer and the substrate 3,3′,5,5′-tetramethyl benzidine (TMB) (Kirkegaard & Perry Laboratories) was added at 100 μl/well. The reaction was stopped by adding 1 M phosphoric acid at 100 μl/well. Absorbance was read at 450 nm on a multiskan Ascent reader (Thermo Labsystems, Helsinki, Finland). The absorbance at the midpoint of the standard curve (mid-OD) was calculated. The corresponding concentrations of standard and samples at this mid-OD were determined from the titration curves using a four-parameter nonlinear regression curve-fitting program (KaleidaGraph, Synergy software, Reading, Pa.). The relative activity was calculated by dividing the mid-OD concentration of standard by that of sample.

[4] = biological target: T2, human FcγRIII (V158), high affinity …; assay: as above
Protocol: as §1

[5] = biological target: T1, human FcγRIII (F158), low affinity …; assay: FcγRIII binding ELISA; relative to control 2H7.v511 antibody pools with about 5% nonfucosylation
Protocol: as §1, with “Plates” for “MaxiSorp 96-well microwell plates (Nunc, Roskilde, Denmark) were coated with 2 μg/ml anti-GST (clone 8E2.1.1, Genentech), at 100 μl/well in 50 mM carbonate buffer, pH 9.6, at 4° C. overnight. Plates”
(§2) A FcγRIII binding assay was done with antibody 2H7.v511 containing either 65% nonfucosylation (from transient run) or 94-95% nonfucosylation (from best stable clone RNAi2.4-3d).

[6] = biological target: T2, human FcγRIII (V158), high affinity …; assay: as above
Protocol: as §1, with “Plates” for “MaxiSorp 96-well microwell plates (Nunc, Roskilde, Denmark) were coated with 2 μg/ml anti-GST (clone 8E2.1.1, Genentech), at 100 μl/well in 50 mM carbonate buffer, pH 9.6, at 4° C. overnight. Plates”
as §2

T1 sequence (P08637 17-208): as the sequence (P08637 17-208 F176V) above, with V160F counted along it

| Binder | Binding (fold) [3] | Binding (fold) [4] | other results |
| --- | --- | --- | --- |
| humanized anti-CD20 antibody 2H7.v16, antibody pool with 35% to 37% nonfucosylation (from RNAi2 / RNAi4 transiently transfected clone #60 cells) (antibody, human IgG1, kappa, N-linked glycan at Asn297; about 35 to 37% nonfucosylated, differs only in fucose content of the Fc glycan; In the ELISA the IgG was complexed with goat F(ab')2 anti-kappa; RNAi2 and RNAi4 pools are reported together; also called 2H7 antibody pool with 35% to 37% nonfucosylation; lower fucose containing 2H7 antibodies) heavy: not shown light: DIQMTQSPSSLSASVGDRVTITCRASSSVSYMHWYQQKPGKAPKPLIYAPSNLASGVPSRFSGSGSGTDFTLTISSLQPEDFATYYCQQWSFNPPTFGQGTKVEIKRTVAAPSVFIFPPSDEQLKSGTASVVCLLNNFYPREAKVQWKVDNALQSGNSQESVTEQDSKDSTYSLSSTLTLSKADYEKHKVYACEVTHQGLSSPVTKSFNRGEC | – | – | fold increase in binding affinity [1]: 6 fold; fold increase in binding affinity [2]: 4 fold |
| humanized 2H7.v16 antibody from stable RNAi4 clone 6C (60% non-fucosylation) (antibody, human IgG1, kappa, N-linked glycan at Asn297; 60% non-fucosylation, Glycoform preparation of 2H7.v16 from clone 60 stably transfected with the RNAi4 construct) heavy: not shown light: DIQMTQSPSSLSASVGDRVTITCRASSSVSYMHWYQQKPGKAPKPLIYAPSNLASGVPSRFSGSGSGTDFTLTISSLQPEDFATYYCQQWSFNPPTFGQGTKVEIKRTVAAPSVFIFPPSDEQLKSGTASVVCLLNNFYPREAKVQWKVDNALQSGNSQESVTEQDSKDSTYSLSSTLTLSKADYEKHKVYACEVTHQGLSSPVTKSFNRGEC | 34 fold | 10.1 fold | – |
| humanized 2H7.v16 antibody from stable RNAi4 clone 5B (45% non-fucosylation) (antibody, human IgG1, kappa, N-linked glycan at Asn297; 45% non-fucosylation, Glycoform preparation of 2H7.v16 from clone 60 stably transfected with the RNAi4 construct) heavy: not shown light: DIQMTQSPSSLSASVGDRVTITCRASSSVSYMHWYQQKPGKAPKPLIYAPSNLASGVPSRFSGSGSGTDFTLTISSLQPEDFATYYCQQWSFNPPTFGQGTKVEIKRTVAAPSVFIFPPSDEQLKSGTASVVCLLNNFYPREAKVQWKVDNALQSGNSQESVTEQDSKDSTYSLSSTLTLSKADYEKHKVYACEVTHQGLSSPVTKSFNRGEC | 24.2 fold | 7.5 fold | – |
| humanized 2H7.v16 antibody from clone 'Control' of Table 1 (3% non-fucosylation) (antibody, human IgG1, kappa, N-linked glycan at Asn297; 3% non-fucosylation) heavy: not shown light: DIQMTQSPSSLSASVGDRVTITCRASSSVSYMHWYQQKPGKAPKPLIYAPSNLASGVPSRFSGSGSGTDFTLTISSLQPEDFATYYCQQWSFNPPTFGQGTKVEIKRTVAAPSVFIFPPSDEQLKSGTASVVCLLNNFYPREAKVQWKVDNALQSGNSQESVTEQDSKDSTYSLSSTLTLSKADYEKHKVYACEVTHQGLSSPVTKSFNRGEC | 1 fold | 1 fold | – |
| humanized anti-CD20 antibody 2H7.v511 containing 94-95% nonfucosylation (from best stable clone RNAi2.4-3d) (antibody, human IgG1, kappa, N-linked glycan at Asn297; 94-95% nonfucosylation, In the ELISA the IgG was complexed with goat F(ab')2 anti-kappa; also called hu2H7.v511; 95% nonfucosylated material) heavy: EVQLVESGGGLVQPGGSLRLSCAASGYTFTSYNMHWVRQAPGKGLEWVGAIYPGNGATSYNQKFKGRFTISVDKSKNTLYLQMNSLRAEDTAVYYCARVVYYSYRYWYFDVWGQGTLVTVSSASTKGPSVFPLAPSSKSTSGGTAALGCLVKDYFPEPVTVSWNSGALTSGVHTFPAVLQSSGLYSLSSVVTVPSSSLGTQTYICNVNHKPSNTKVDKKVEPKSCDKTHTCPPCPAPELLGGPSVFLFPPKPKDTLMISRTPEVTCVVVDVSHEDPEVKFNWYVDGVEVHNAKTKPREEQYNATYRVVSVLTVLHQDWLNGKEYKCKVSNAALPAPIAATISKAKGQPREPQVYTLPPSREEMTKNQVSLTCLVKGFYPSDIAVEWESNGQPENNYKTTPPVLDSDGSFFLYSKLTVDKSRWQQGNVFSCSVMHEALHNHYTQKSLSLSPGK light: DIQMTQSPSSLSASVGDRVTITCRASSSVSYLHWYQQKPGKAPKPLIYAPSNLASGVPSRFSGSGSGTDFTLTISSLQPEDFATYYCQQWAFNPPTFGQGTKVEIKRTVAAPSVFIFPPSDEQLKSGTASVVCLLNNFYPREAKVQWKVDNALQSGNSQESVTEQDSKDSTYSLSSTLTLSKADYEKHKVYACEVTHQGLSSPVTKSFNRGEC | – | – | fold increase in affinity [5]: 9.8 fold; fold increase in affinity [6]: 6.8 fold |
| humanized 2H7.v16 antibody from clone 'Parent' of Table 1 (5% non-fucosylation) (antibody, human IgG1, kappa, N-linked glycan at Asn297; 5% non-fucosylation) heavy: not shown light: DIQMTQSPSSLSASVGDRVTITCRASSSVSYMHWYQQKPGKAPKPLIYAPSNLASGVPSRFSGSGSGTDFTLTISSLQPEDFATYYCQQWSFNPPTFGQGTKVEIKRTVAAPSVFIFPPSDEQLKSGTASVVCLLNNFYPREAKVQWKVDNALQSGNSQESVTEQDSKDSTYSLSSTLTLSKADYEKHKVYACEVTHQGLSSPVTKSFNRGEC | 1 fold | 1 fold | – |
| humanized anti-CD20 antibody 2H7.v511 containing 65% nonfucosylation (from transient run) (antibody, human IgG1, kappa, N-linked glycan at Asn297; 65% nonfucosylation, In the ELISA the IgG was complexed with goat F(ab')2 anti-kappa; also called hu2H7.v511; v511-NF) heavy: EVQLVESGGGLVQPGGSLRLSCAASGYTFTSYNMHWVRQAPGKGLEWVGAIYPGNGATSYNQKFKGRFTISVDKSKNTLYLQMNSLRAEDTAVYYCARVVYYSYRYWYFDVWGQGTLVTVSSASTKGPSVFPLAPSSKSTSGGTAALGCLVKDYFPEPVTVSWNSGALTSGVHTFPAVLQSSGLYSLSSVVTVPSSSLGTQTYICNVNHKPSNTKVDKKVEPKSCDKTHTCPPCPAPELLGGPSVFLFPPKPKDTLMISRTPEVTCVVVDVSHEDPEVKFNWYVDGVEVHNAKTKPREEQYNATYRVVSVLTVLHQDWLNGKEYKCKVSNAALPAPIAATISKAKGQPREPQVYTLPPSREEMTKNQVSLTCLVKGFYPSDIAVEWESNGQPENNYKTTPPVLDSDGSFFLYSKLTVDKSRWQQGNVFSCSVMHEALHNHYTQKSLSLSPGK light: DIQMTQSPSSLSASVGDRVTITCRASSSVSYLHWYQQKPGKAPKPLIYAPSNLASGVPSRFSGSGSGTDFTLTISSLQPEDFATYYCQQWAFNPPTFGQGTKVEIKRTVAAPSVFIFPPSDEQLKSGTASVVCLLNNFYPREAKVQWKVDNALQSGNSQESVTEQDSKDSTYSLSSTLTLSKADYEKHKVYACEVTHQGLSSPVTKSFNRGEC | – | – | fold increase in affinity [5]: 6.2 fold; fold increase in affinity [6]: 4.8 fold |
| humanized 2H7.v16 antibody from stable RNAi4 clone 7C (63% non-fucosylation) (antibody, human IgG1, kappa, N-linked glycan at Asn297; 63% non-fucosylation, Glycoform preparation of 2H7.v16 from clone 60 stably transfected with the RNAi4 construct) heavy: not shown light: DIQMTQSPSSLSASVGDRVTITCRASSSVSYMHWYQQKPGKAPKPLIYAPSNLASGVPSRFSGSGSGTDFTLTISSLQPEDFATYYCQQWSFNPPTFGQGTKVEIKRTVAAPSVFIFPPSDEQLKSGTASVVCLLNNFYPREAKVQWKVDNALQSGNSQESVTEQDSKDSTYSLSSTLTLSKADYEKHKVYACEVTHQGLSSPVTKSFNRGEC | 32.4 fold | 10.4 fold | – |
| humanized 2H7.v16 antibody from stable RNAi4 clone 5F (70% non-fucosylation) (antibody, human IgG1, kappa, N-linked glycan at Asn297; 70% non-fucosylation, Glycoform preparation of 2H7.v16 from clone 60 stably transfected with the RNAi4 construct) heavy: not shown light: DIQMTQSPSSLSASVGDRVTITCRASSSVSYMHWYQQKPGKAPKPLIYAPSNLASGVPSRFSGSGSGTDFTLTISSLQPEDFATYYCQQWSFNPPTFGQGTKVEIKRTVAAPSVFIFPPSDEQLKSGTASVVCLLNNFYPREAKVQWKVDNALQSGNSQESVTEQDSKDSTYSLSSTLTLSKADYEKHKVYACEVTHQGLSSPVTKSFNRGEC | 52.4 fold | 13.7 fold | – |
